Results published in article PMC5750462 (Emerging Microbes & Infections, 2017).

Target: the molecule itself
Experiment: BLI; […] (PBS, 0.01% BSA, 0.002% Tween-20); […]

B1: recombinant N1-165-domain of wild-type (wt) matrix protein 1 (M1), influenza A virus A/WSN/33 (domain or fragment)
chain: MSLLTEVETYVLSIVPSGPLKAEIAQRLEDVFAGKNTDLEVLMEWLKTRPILSPLTKGILGFVFTLTVPSERGLQRRRFVQNALNGNGDPNNMDKAVKLYRKLKREITFHGAKEIALSYSAGALASCMGLIYNRMGAVTTEVAFGLVCATCEQIADSQHRSHRQM
Q: Does B1 bind?
A: binds
